Our source for the binding result and Kd values is patent publication US20240067738A1 (ELANCO US, published 2024).

Substitutions are numbered along the chain they refer to.

Assay [1] has as its target Human IL4R-ECD_C-HuFc_His6 (processed) (human). The experiment in a line: Western blot.
For assay [2], the target named is T1, Canine IL4R-ECD_C-HuFc_His6 (processed) (canine).
T1 construct: Whole construct (ECD, linker, human Fc, His6) is one entry
The assay can be described thus: Western blot. A general note: In western blotting, separated proteins are transferred to a membrane and probed.

For assay [3], the target named is T2, canine IL4R (Examples 16, 18 and 19; construct not stated) (canine, biotinylated; sites not stated).
T2 construct: also called Biotinylated canine IL4R; canine IL4R extracellular domains
T2 chain: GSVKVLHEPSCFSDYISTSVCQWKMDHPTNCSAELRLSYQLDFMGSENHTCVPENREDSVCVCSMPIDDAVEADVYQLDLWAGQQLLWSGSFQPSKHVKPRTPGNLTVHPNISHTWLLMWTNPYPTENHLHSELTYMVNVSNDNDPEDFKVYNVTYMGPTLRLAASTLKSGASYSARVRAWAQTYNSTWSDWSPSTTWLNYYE
The assay can be described thus: BLI (ForteBio OctetRed), biotinylated canine IL4R on streptavidin tip. For orientation: Biolayer interferometry detects binding as a change in optical thickness at a sensor tip.

For assay [4], the target named is T2, canine IL4R (Examples 16, 18 and 19; …). The assay can be described thus: BLI (ForteBio OctetRed).
Assay [5] shares this target. The experiment in a line: method not stated.
The target of assay [6] is T3, Canine IL4R-ECD_C-His6 (processed) (canine, biotinylated through amine chemistry; sites not stated).
T3 construct: Whole construct (ECD, linker, His6) is one entry; Captured biotinylated on streptavidin tips or wells
T3 chain: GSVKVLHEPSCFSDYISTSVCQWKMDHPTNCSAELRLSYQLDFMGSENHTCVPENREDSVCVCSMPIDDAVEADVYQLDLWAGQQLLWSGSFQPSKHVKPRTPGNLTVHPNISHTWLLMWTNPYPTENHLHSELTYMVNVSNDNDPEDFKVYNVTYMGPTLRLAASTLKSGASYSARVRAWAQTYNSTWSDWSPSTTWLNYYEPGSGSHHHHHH
The experiment in a line: BLI (Octet), biotinylated IL4R-ECD_C-His6 on streptavidin tips, 1:1 fit. As for the experimental part: The binding analysis was performed using an Octet Biosensor as follows. Briefly, canine IL4R-ECD_C-His6 (SEQ ID NO: 107) was biotinylated through amine chemistry. The free unreacted biotin was removed by extensive dialysis. Biotinylated canine IL4R-ECD_C-His6 was captured on streptavidin sensor tips. The association of either Clone B or I antibody and canine IL4R-ECD_C-His6 (25 μg/mL) was monitored for 600 seconds. Dissociation was monitored for 600 seconds. A buffer only blank curve was subtracted to correct for any drift. The data were fit to a 1:1 binding model using ForteBio™ data analysis software to determine the kₒₙ, koff, and the Kd. The buffer for dilutions and all binding steps was 20 mM phosphate, 150 mM NaCl, pH 7.2.

Assay [7] addresses T1, Canine IL4R-ECD_C-HuFc_His6 (processed). The experiment in a line: BLI (Octet), IL4R-ECD_C-HuFc_His6 on anti-human Fc tips. The procedure:
An alternative binding assay was performed also using an Octet Biosensor. Canine IL4R-ECD_C-HuFc_His6 (SEQ ID NO: 109) was captured on anti-human Fc-bound sensor tips. The association of either Clone B or I antibody and canine IL4R-ECD_C-HuFc_His6 was monitored for 600 seconds. Dissociation was monitored for 600 seconds. The buffer for dilutions and all binding steps was 20 mM phosphate, 150 mM NaCl, pH 7.2. […] In addition, amine conjugation may affect the affinity of canine IL4R-ECD_C-His6 to interact with Clone B and I antibodies.

For assay [8], the target named is Feline IL4R-ECD_C-HuFc_His6 (processed) (feline). The experiment in a line: BLI (Octet), biotinylated feline IL4R-ECD_C-HuFc_His6 on streptavidin tips, antibody 25 µg/mL, 1:1 fit. The procedure: This finding was consistent with in vitro binding affinity measured by Octet Biosensor. Biotinylated feline IL4R-ECD_C-HuFc_His6 (SEQ ID NO: 111) was captured on streptavidin sensor tips. The association of Clone I antibody (25 μg/mL) and feline IL4R-ECD_C-HuFc_His6 was monitored for 600 seconds. Dissociation was monitored for 600 seconds. A buffer only blank curve was subtracted to correct for any drift. The data were fit to a 1:1 binding model using ForteBio™ data analysis software to determine the kₒₙ, koff, and the Kd. The buffer for dilutions and all binding steps was 20 mM phosphate, 150 mM NaCl, pH 7.2.

The target of assay [9] is Equine IL4R-ECD_C-HuFc_His6 (processed) (equine). The experiment in a line: Western blot, non-reducing.
Assay [10] deals with T4, Canine/Human IL4R-ECD_C-HuFc_His6 Hybrid 13 (canine/human hybrid).
T4 construct: Canine G1-S89 and P110-P204; human G90-H109
The assay can be described thus: Western blot, non-reducing.

For assay [11], the target named is Human IL4R-ECD_C-HuFc_His6 (processed) (human). The experiment in a line: Western blot, non-reducing.
Assay [12] has as its target Murine IL4R-ECD_C-HuFc_His6 (processed) (murine). The experiment in a line: Western blot, non-reducing.
The target in assay [13] is T5, Canine/Human IL4R-ECD_C-HuFc_His6 Hybrid 6 (canine/human hybrid).
T5 construct: Canine G1-N55 and P110-P204; human N56-H109
The experiment in a line: Western blot, non-reducing.

Assay [14] concerns the target T6, Canine/Human IL4R-ECD_C-HuFc_His6 Hybrid 1 (canine/human hybrid).
T6 construct: Canine G1-N55, human N56-H209, human Fc-His6; Tested as 3-fold concentrated 293 supernatant
The experiment in a line: Western blot, non-reducing.

Human IL4R-ECD_C-HuFc_His6 (processed) (human), sequence (chain, as listed by the source limits assumed): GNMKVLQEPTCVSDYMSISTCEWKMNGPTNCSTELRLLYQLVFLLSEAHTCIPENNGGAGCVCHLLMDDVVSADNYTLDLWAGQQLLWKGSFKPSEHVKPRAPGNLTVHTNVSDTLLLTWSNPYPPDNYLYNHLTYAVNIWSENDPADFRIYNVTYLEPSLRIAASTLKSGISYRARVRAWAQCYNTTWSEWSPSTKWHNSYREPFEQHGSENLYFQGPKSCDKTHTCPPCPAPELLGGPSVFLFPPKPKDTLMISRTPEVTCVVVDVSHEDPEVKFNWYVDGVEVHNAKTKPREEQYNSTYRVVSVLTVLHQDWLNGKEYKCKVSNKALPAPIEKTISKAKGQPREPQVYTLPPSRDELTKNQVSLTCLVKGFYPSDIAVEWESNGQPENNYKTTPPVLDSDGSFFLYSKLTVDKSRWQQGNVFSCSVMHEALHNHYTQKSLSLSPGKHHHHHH
T5 sequence (chain, as listed by the source limits assumed): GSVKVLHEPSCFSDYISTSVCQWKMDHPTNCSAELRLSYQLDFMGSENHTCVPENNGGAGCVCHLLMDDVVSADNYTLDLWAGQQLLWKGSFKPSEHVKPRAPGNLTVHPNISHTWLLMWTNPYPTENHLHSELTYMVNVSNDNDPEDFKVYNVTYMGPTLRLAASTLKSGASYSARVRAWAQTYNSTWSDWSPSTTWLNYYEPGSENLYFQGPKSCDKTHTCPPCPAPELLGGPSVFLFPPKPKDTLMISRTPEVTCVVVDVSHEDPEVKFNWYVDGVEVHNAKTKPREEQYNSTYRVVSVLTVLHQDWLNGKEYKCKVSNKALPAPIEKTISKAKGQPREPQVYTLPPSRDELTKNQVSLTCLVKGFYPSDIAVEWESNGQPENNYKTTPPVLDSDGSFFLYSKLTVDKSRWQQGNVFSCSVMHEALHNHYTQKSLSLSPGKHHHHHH
T4 sequence (chain, as listed by the source limits assumed): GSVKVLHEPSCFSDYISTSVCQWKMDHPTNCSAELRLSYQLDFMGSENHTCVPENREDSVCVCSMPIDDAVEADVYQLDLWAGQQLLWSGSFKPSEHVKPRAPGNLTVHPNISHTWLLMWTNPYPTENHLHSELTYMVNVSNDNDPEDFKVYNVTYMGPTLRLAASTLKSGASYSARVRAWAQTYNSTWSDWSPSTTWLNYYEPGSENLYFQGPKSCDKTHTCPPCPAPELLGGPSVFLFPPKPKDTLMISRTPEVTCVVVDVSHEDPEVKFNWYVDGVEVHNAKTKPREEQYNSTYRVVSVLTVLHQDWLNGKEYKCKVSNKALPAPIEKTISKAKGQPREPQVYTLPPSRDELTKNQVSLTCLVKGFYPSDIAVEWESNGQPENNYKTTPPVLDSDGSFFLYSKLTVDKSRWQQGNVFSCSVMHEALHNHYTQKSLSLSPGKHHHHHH
T6 sequence (chain, as listed by the source limits assumed): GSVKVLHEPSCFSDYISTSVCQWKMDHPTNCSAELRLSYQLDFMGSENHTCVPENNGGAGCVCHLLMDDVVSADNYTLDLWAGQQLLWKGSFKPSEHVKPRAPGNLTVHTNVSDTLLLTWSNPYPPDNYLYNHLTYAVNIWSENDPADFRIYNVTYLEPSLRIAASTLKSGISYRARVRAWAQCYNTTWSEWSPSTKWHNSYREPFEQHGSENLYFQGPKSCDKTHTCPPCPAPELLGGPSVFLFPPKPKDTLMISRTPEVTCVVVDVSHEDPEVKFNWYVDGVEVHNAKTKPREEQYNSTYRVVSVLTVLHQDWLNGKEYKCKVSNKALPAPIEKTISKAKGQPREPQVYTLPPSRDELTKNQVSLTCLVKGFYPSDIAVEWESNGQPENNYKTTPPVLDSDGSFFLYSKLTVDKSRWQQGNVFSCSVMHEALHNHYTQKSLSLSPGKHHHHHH
Feline IL4R-ECD_C-HuFc_His6 (processed) (feline), sequence (chain, as listed by the source limits assumed): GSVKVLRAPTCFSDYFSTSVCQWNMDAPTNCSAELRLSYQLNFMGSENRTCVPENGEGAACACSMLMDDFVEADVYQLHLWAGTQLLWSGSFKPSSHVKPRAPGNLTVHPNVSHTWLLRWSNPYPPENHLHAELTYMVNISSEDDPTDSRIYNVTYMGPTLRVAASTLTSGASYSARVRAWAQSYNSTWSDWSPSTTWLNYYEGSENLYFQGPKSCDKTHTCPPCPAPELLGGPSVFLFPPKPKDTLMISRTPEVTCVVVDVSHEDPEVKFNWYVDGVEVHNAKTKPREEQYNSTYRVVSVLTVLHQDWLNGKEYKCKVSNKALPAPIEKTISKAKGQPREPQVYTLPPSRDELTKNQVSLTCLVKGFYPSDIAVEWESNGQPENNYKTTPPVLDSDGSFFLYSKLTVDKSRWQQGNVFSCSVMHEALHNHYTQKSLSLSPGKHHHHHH
Murine IL4R-ECD_C-HuFc_His6 (processed) (murine), sequence (chain, as listed by the source limits assumed): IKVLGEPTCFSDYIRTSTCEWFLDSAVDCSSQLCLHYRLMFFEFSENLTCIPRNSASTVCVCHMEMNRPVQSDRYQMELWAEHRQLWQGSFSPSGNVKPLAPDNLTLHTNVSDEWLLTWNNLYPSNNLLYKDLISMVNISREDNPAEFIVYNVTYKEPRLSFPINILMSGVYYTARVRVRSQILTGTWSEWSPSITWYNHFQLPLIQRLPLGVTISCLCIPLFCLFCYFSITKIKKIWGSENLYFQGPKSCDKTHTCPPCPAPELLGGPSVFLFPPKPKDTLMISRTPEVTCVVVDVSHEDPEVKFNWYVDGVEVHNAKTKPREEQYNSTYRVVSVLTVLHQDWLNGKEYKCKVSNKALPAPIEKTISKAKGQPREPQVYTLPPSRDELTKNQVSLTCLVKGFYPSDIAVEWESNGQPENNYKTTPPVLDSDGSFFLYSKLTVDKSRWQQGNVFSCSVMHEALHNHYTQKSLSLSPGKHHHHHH
Equine IL4R-ECD_C-HuFc_His6 (processed) (equine), sequence (chain, as listed by the source limits assumed): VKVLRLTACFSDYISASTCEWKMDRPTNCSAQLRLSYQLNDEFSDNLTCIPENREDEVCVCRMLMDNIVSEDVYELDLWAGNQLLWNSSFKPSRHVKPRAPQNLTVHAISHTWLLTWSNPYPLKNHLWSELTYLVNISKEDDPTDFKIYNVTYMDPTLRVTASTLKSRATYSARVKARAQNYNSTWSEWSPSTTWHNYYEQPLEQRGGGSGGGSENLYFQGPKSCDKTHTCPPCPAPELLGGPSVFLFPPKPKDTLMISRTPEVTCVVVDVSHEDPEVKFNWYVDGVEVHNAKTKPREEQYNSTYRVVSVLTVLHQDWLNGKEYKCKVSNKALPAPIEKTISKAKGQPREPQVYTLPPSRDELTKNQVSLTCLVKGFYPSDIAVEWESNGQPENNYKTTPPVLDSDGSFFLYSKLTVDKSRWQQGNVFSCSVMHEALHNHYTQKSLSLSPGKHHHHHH

B1: M3 mouse monoclonal antibody (antibody, V domains shown)
VH: QVQLKESGPGLVAPSQSLSITCTVSGFSLSRYSVHWVRQPPGKGLEWLGMIWGGGSTDYNSVFKSRLSISKDNSKSQVFLKMNSLQTDDTAMYYCARTYRGYALDYWGQGTSVTVSS
VL: DIQMTQTTSSLSASLGDRVTISCRASQDISNYLNWYQQKPDGTVKLLIYYTSRLQSGVPSRFSGSGSGTDYCLTISNLEQEDIATYFCQQANTLPLTFGSGTKLELK
notes: Mouse antibody purified from hybridoma culture; also called Clone M3
By Kd is commonly meant the free concentration of one partner at which half of the binding sites on the other are occupied at equilibrium, for simple one-to-one binding. On to B1, for which the binding result in assay [1] is given as “no binding”; in assay [2], “binds”. This molecule also had a Kd in assay [3] of less than 10 nM.

B2: M5 mouse monoclonal antibody (antibody, V domains shown)
VH: B1 VH
VL: B1 VL
notes: Mouse antibody purified from hybridoma culture; also called Clone M5
The molecule B2 displayed a Kd in assay [3] of less than 10 nM.

B3: murine-canine chimeric M3 antibody (canine IgG-B, canine kappa) (antibody, V domains shown)
VH: B1 VH
VL: B1 VL
notes: also called chimeric canine IgG-B (M3)
In turn, B3 displayed a Kd in assay [4] of less than 10 nM.

B4: murine-canine chimeric M5 antibody (canine IgG-B, canine kappa) (antibody, V domains shown)
VH: B1 VH
VL: B1 VL
notes: also called chimeric canine IgG-B (M5)
B4: the Kd in [4] is less than 10 nM.

B5: caninized M3 antibody, variable HC v1 with variant canine IgG-B (C1q-, CD16-) and variable LC v1 with canine kappa (antibody, V domains shown)
VH: EVQLVESGGDLVKPAGSLRLSCTVSGFSLSRYSVHWVRQAPGKGLEWLGMIWGGGSTDYNSVVKGRFTISRDNAKNTVYLQMNSLRAEDTAMYYCARTYRGYALDYWGQGTLVTVSS
VL: DIVMTQTPLSLSVSPGEPASISCRASQDISNYLNWYLQKAGQSPRLLIYYTSRLQSGVPDRFSGSGSGTDFTLRIGRVEAEDAGIYFCQQANTLPLTFGQGTRLEVRR
notes: also called caninized M3 HC v1 / LC v1
The molecule B5 had a Kd in assay [5] not above 1 nM.

B6: caninized M3 antibody, variable HC v2 with variant canine IgG-B (C1q-, CD16-) and variable LC v1 with canine kappa (antibody, V domains shown)
VH: ELTLQESGPGLVKPSQTLSLTCTVSGFSLSRYSVHWIRQPRGRGLELLGMIWGGGSTDYNPAFQGRISITADTAKNQFSLQLSSMTTEDTAVYYCARTYRGYALDYWGQGTLVTVSS
VL: B5 VL
notes: also called caninized M3 HC v2 / LC v1
Molecule B6 returned a Kd in assay [5] not above 1 nM.

B7: Clone B mouse monoclonal antibody (antibody, mouse IgG1, kappa, V domains shown)
VH: EVKLEESGPELVKPGASVKMSCKASGYTFTSYVMHWVKQKPGQGLEWIGYINPKNDGTFYNGKFKGKATLTSDKSSSTAYMELSSLTSEDSAVYYCAAFNYGIAYWGQGTLVTVSS
VL: IVLTQTPSSLSASLGERVSLTCRASQEISGYLSWLQQKPDGTIKRLIYAASTLDSGVPKRFSGSRSGSDFSLTISSLESEDFADYYCVQYASYPWTFGGGARLEIKR
notes: also called Clone B antibody; anti-IL4R-mAb Clone B
As for B7, the values for the Kd in [6] and in assay [7] were 2.03 nM and approximately 0.1 nM, respectively.

B8: Clone I mouse monoclonal antibody (antibody, mouse IgG1, kappa, V domains shown)
VH: B7 VH with K3Q, E5Q, E6Q, K54N, N100Y, I103F, S116A
VL: DIVLTQSPSSLSASLGERVSLTCRASQEISGYLSWLQQKPDGTIKRLIYAASTLDSGVPKRFSGSRSGSDFSLTISSLESEDFADYYCLQYASYPWTFGGGAKLEIKR
notes: also called Clone I antibody; anti-IL4R-mAb Clone I
As for B8, the Kd in assay [8] came out at 1.1 nM. Besides, the binding result in assay [9] is “no binding (tested: Clone I 0.3 µg/mL; 0.1 µg/lane)”; in assay [10] it was “binds”; in assay [11] it was “no binding (tested: Clone I 0.3 µg/mL; 0.1 µg/lane)”; in [12], “no binding (tested: Clone I 0.3 µg/mL; 0.1 µg/lane)”; in [13], “binds”; in assay [14], “binds”.

B9: M8 mouse monoclonal antibody (antibody, V domains shown)
VH: QVQLQQSGPELVKPGALVKISCKASGYTFTSYDINWVKQRPGQGLEWIGWIYPGDGSTKYNEKFKGKATLTADKSSSTAYMQLSSLTSEDSAVYFCARSSFVVWGAGTTVTVSS
VL: DIQMTQSSSYLSVSLGGRVTITCKASDPINNWLAWYQQKPGNAPRLLISGATSLETGVPSRISGSGSGKDYSLSITSLQTEDIATYYCHQYWSIPYTFGGGTKLEIK
notes: Mouse antibody purified from hybridoma culture; also called Clone M8
In the case of B9, the binding result is recorded as “no binding” in [1] and “binds” in assay [2]. Moreover, the Kd in assay [3] was less than 10 nM.

B10: murine-canine chimeric M8 antibody (canine IgG-B, canine kappa) (antibody, V domains shown)
VH: B9 VH
VL: B9 VL
notes: also called chimeric canine IgG-B (M8)
B10 registered a Kd in assay [4] of less than 10 nM.

B11: caninized M9 antibody, variable HC v1 with variant canine IgG-B (C1q-, CD16-) and variable LC v1 with canine kappa (antibody, V domains shown)
VH: EVQLVESGGDLVKPGGSLRLSCAASGFTFSSFGMHWVRQAPGKGLEWVAYIRSDSSTIYYADAVKGRFTISRDNAKNTLYLQMNSLRAEDTAMYYCARSGYYGSFSLTYWGQGTLVTVSS
VL: DIMLTQTPLSLSVSPGEPASISCSASSSVSSNYLHWYLQKAGQSPRLLIYRTSNLPSGVPDRFSGSGSGTDFTLRIGRVEAEDAGIYYCQQGSGMLTFGQGTRLEVRR
notes: also called caninized M9 HC v1 / LC v1
Take B11: the Kd in assay [5] is not above 1 nM.

B12: caninized M9 antibody, variable HC v2 with variant canine IgG-B (C1q-, CD16-) and variable LC v1 with canine kappa (antibody, V domains shown)
VH: B11 VH with A23V, E46Q
VL: B11 VL
notes: also called caninized M9 HC v2 / LC v1
As for B12, the Kd in [5] is not above 1 nM.

B13: M9 mouse monoclonal antibody (antibody, V domains shown)
VH: DVQLVESGGGLVQPGGSRKLSCAASGFTFSSFGMHWVRQAPEKGLEWVAYIRSDSSTIYYADTVKGRFTISRDNPKNTLFLQMTSLRSEDTAMYYCARSGYYGSFSLTYWGQGTLVTVSA
VL: EIVLTQSPTTMAASPGEKITITCSASSSVSSNYLHWYQQKPGFSPKLLIYRTSNLPSGVPARFFGSGSGTSYSLTIGTMEAEDVATYYCQQGSGMLTFGAGTKLELK
notes: Mouse antibody purified from hybridoma culture; also called Clone M9
As for B13, the binding result in assay [1] is listed as “no binding”; in assay [2], “binds”. In assay [3], this molecule displayed a Kd of less than 10 nM.

B14: murine-canine chimeric M9 antibody (canine IgG-B, canine kappa) (antibody, V domains shown)
VH: B13 VH
VL: B13 VL
notes: also called chimeric canine IgG-B (M9)
For B14, the Kd in [4] is less than 10 nM.
